Key:
Assay in all cases: peptide microarray (RepliTope), 15-mers
Reference peptide no. 41 = target: T1, Reference peptide no. 41
T1 construct: hIL-2 15-mer, first library, parental Cys replaced by Ser, on microarray; also called peptide 41
T1 peptide: NRWITFSQSIISTLT
Procedure: (§1) Additional incubations are with unrelated antibodies from the same isotype (mouse control IgG2a/lambda and mouse control IgG2a/kappa), and secondary antibodies (anti-mouse IgG (Thermo 84545, label DL650) or anti-mouse IgG (JIR 115-175-072, Label Cy5)) to assess unspecific binding due to the detection antibody. The experiments are performed essentially as described in Maksimov P, et al. 2012, PLoS One 7:e34212. doi:10.1371/journal. pone. 0034212.
(§2) The determination of peptide-antibody binding was performed by RepliTope-analysis where the peptide microarray (triplicate) was incubated with the primary antibody followed by a fluorescently labelled secondary antibody directed against the Fc-part of the primary one. All steps were performed on a TECAN microarray processing station enabling highly reliable and reproducible washing and incubation steps. After performing the incubation steps and subsequent to the final washing steps (to remove the unbound secondary antibodies) the microarrays were dried using a nitrogen stream and scanned in a high resolution microarray scanning system with appropriate wavelength settings. Control incubations were performed with an unrelated antibody having the same isotype to exclude false positive signals.
(§3) The resulting images were analyzed und quantified using spot-recognition software GenePix (Molecular Devices). For each spot, the mean signal intensity was extracted (between 0 and 65535 arbitrary units). For further data evaluation, the MMC2 values were determined. The MMC2 equals the mean value of all three instances on the microarray. Except the coefficient of variation (CV)—standard-deviation divided by the mean value—is larger 0.5, in this case the mean of the two closest values (MC2) is assigned to MMC2.

Reference peptide no. 56 = target: T2, Reference peptide no. 56
T2 construct: second library: peptide 20 with L(92) to Ala; parental Cys replaced by Ser; also called peptide 56
T2 peptide: SLEEELKPLEEVLNA
Procedure: as §1, §2, §3

Reference peptide no. 57 = target: T3, Reference peptide no. 57
T3 construct: second library: peptide 21 with L(92) to Ala; also called peptide 57
T3 peptide: EELKPLEEVLNAAQS
Procedure: as §1, §2, §3

Reference peptide no. 12 = target: T4, Reference peptide no. 12
T4 construct: hIL-2 15-mer, first library, on microarray; also called peptide 12
T4 peptide: PKLTRMLTFKFYMPK
Procedure: as §1, §2, §3

Reference peptide no. 21 = target: T5, Reference peptide no. 21
T5 construct: hIL-2 15-mer, first library, on microarray; also called peptide 21
T5 peptide: EELKPLEEVLNLAQS
Procedure: as §1, §2, §3

Reference peptide no. 24 = target: T6, Reference peptide no. 24
T6 construct: hIL-2 15-mer, first library, on microarray; also called peptide 24
T6 peptide: LNLAQSKNFHLRPRD
Procedure: as §1, §2, §3

Reference peptide no. 47 = target: T7, Reference peptide no. 47
T7 construct: second library: peptide 11 with Y(65) to Ala; also called peptide 47
T7 peptide: YKNPKLTRMLTFKFA
Procedure: as §1, §2, §3

Reference peptide no. 35 = target: T8, Reference peptide no. 35
T8 construct: hIL-2 15-mer, first library, parental Cys replaced by Ser, on microarray; also called peptide 35
T8 peptide: FMSEYADETATIVEF
Procedure: as §1, §2, §3

Reference peptide no. 39 = target: T9, Reference peptide no. 39
T9 construct: hIL-2 15-mer, first library, parental Cys replaced by Ser, on microarray; also called peptide 39
T9 peptide: VEFLNRWITFSQSII
Procedure: as §1, §2, §3

Reference peptide no. 19 = target: T10, Reference peptide no. 19
T10 construct: hIL-2 15-mer, first library, parental Cys replaced by Ser, on microarray; also called peptide 19
T10 peptide: HLQSLEEELKPLEEV
Procedure: as §1, §2, §3

Reference peptide no. 43 = target: T11, Reference peptide no. 43
T11 construct: second library: peptide 11 with F(62) to Ala; also called peptide 43
T11 peptide: YKNPKLTRMLTAKFY
Procedure: as §1, §2, §3

Reference peptide no. 17 = target: T12, Reference peptide no. 17
T12 construct: hIL-2 15-mer, first library, parental Cys replaced by Ser, on microarray; also called peptide 17
T12 peptide: KATELKHLQSLEEEL
Procedure: as §1, §2, §3

Reference peptide no. 36 = target: T13, Reference peptide no. 36
T13 construct: hIL-2 15-mer, first library, on microarray; also called peptide 36
T13 peptide: EYADETATIVEFLNR
Procedure: as §1, §2, §3

Reference peptide no. 20 = target: T14, Reference peptide no. 20
T14 construct: hIL-2 15-mer, first library, parental Cys replaced by Ser, on microarray; also called peptide 20
T14 peptide: SLEEELKPLEEVLNL
Procedure: as §1, §2, §3

Reference peptide no. 45 = target: T15, Reference peptide no. 45
T15 construct: second library: peptide 13 with F(62) to Ala; also called peptide 45
T15 peptide: TRMLTAKFYMPKKAT
Procedure: as §1, §2, §3

Reference peptide no. 49 = target: T16, Reference peptide no. 49
T16 construct: second library: peptide 13 with Y(65) to Ala; also called peptide 49
T16 peptide: TRMLTFKFAMPKKAT
Procedure: as §1, §2, §3

Reference peptide no. 40 = target: T17, Reference peptide no. 40
T17 construct: hIL-2 15-mer, first library, parental Cys replaced by Ser, on microarray; also called peptide 40
T17 peptide: LNRWITFSQSIISTL
Procedure: as §1, §2, §3

Reference peptide no. 6 = target: T18, Reference peptide no. 6
T18 construct: hIL-2 15-mer, first library, on microarray; also called peptide 6
T18 peptide: HLLLDLQMILNGINN
Procedure: as §1, §2, §3

Reference peptide no. 42 = target: T19, Reference peptide no. 42
T19 construct: second library: peptide 10 with F(62) to Ala; also called peptide 42
T19 peptide: INNYKNPKLTRMLTA
Procedure: as §1, §2, §3

Reference peptide no. 11 = target: T20, Reference peptide no. 11
T20 construct: hIL-2 15-mer, first library, on microarray; also called peptide 11
T20 peptide: YKNPKLTRMLTFKFY
Procedure: as §1, §2, §3

Reference peptide no. 52 = target: T21, Reference peptide no. 52
T21 construct: second library: peptide 11 with F(62) and Y(65) to Ala; also called peptide 52
T21 peptide: YKNPKLTRMLTAKFA
Procedure: as §1, §2, §3

Reference peptide no. 28 = target: T22, Reference peptide no. 28
T22 construct: hIL-2 15-mer, first library, on microarray; also called peptide 28
T22 peptide: PRDLISNINVIVLEL
Procedure: as §1, §2, §3

Reference peptide no. 32 = target: T23, Reference peptide no. 32
T23 construct: hIL-2 15-mer, first library, parental Cys replaced by Ser, on microarray; also called peptide 32
T23 peptide: LELKGSETTFMSEYA
Procedure: as §1, §2, §3

Reference peptide no. 27 = target: T24, Reference peptide no. 27
T24 construct: hIL-2 15-mer, first library, on microarray; also called peptide 27
T24 peptide: HLRPRDLISNINVIV
Procedure: as §1, §2, §3

Measured: binding result

B1: NARA1 (antibody, mouse IgG2a, kappa, V domains shown)
VH: QVQLQQSGAELVRPGTSVKVSCKASGYAFTNYLIEWVKQRPGQGLEWIGVINPGSGGTNYNEKFKGKATLTADKSSSTAYMQLSSLTSDDSAVYFCARWRGDGYYAYFDVWGAGTTVTVSS
VL: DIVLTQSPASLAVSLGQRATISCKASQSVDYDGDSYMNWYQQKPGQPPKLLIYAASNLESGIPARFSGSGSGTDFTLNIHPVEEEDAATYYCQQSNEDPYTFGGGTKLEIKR
notes: Mouse monoclonal from hybridoma; Isotype controls used were mouse IgG2a; also called anti-IL2 (NARA1) antibody; monoclonal antibody NARA1
no binding: all assays above

From patent US20170183403A1 (UNIVERSIT T Z RICH, published 2017)
